Test results taken from publication PMC6021111, “Murine leukemia virus p12 tethers the capsid-containing pre-integration complex to chromatin by binding directly to host nucleosomes in mitosis” (PLoS Pathogens, 2018).

Legend:
[1] = target: partner chain of the complex shown [chain 1 S65A R66A L67A R68A G69A]; test: SILAC-MS of GST pull-down; settings: mitotic 293T cell lysates
[2] = target: C-terminally His-tagged N-MLV CA WT (N-tropic murine leukaemia virus (N-MLV)); test: co-sedimentation
Sequence of C-terminally His-tagged N-MLV CA WT (N-tropic murine leukaemia virus (N-MLV)) (P03336 215-477 limits assumed): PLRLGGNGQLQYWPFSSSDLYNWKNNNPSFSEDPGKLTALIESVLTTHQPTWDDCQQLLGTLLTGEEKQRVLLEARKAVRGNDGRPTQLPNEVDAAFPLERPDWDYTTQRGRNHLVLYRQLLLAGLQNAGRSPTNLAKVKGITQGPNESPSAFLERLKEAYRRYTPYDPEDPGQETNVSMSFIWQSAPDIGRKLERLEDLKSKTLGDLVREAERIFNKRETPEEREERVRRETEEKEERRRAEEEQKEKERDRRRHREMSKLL

[3] = target: GST-tagged FeLV p12 A53V (feline leukaemia virus (FeLV)); test: pull-down
[4] = target: GST-tagged FeLV p12 I52M (feline leukaemia virus (FeLV)); test: pull-down
[5] = target: GST-tagged Mo-MLV p12_M63I (Moloney murine leukaemia virus (Mo-MLV)); test: pull-down
[6] = target: GST-tagged Mo-MLV p12_M63I with S61A (Moloney murine leukaemia virus (Mo-MLV)); test: pull-down
[7] = target: GST-tagged Mo-MLV p12_M63I with S61D (Moloney murine leukaemia virus (Mo-MLV)); test: pull-down
[8] = target: GST-tagged Mo-MLV p12_M63I with S61E (Moloney murine leukaemia virus (Mo-MLV)); test: pull-down
[9] = tested on: hCBS soluble competitor peptide (prototypic foamy virus (PFV)); test: competition; settings: scale: fold decrease of nucleosome binding to immobilised hCBS


Sequence of N-MLV p12_WT (purified, untagged) (natural protein) (P03336 130-214 limits assumed): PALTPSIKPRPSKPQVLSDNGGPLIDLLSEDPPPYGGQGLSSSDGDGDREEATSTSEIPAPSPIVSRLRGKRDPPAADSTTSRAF

screen value (SDs from the mean) ([1]; replicate R1): 1.1 | screen value (SDs from the mean) ([1]; replicate R2): 2.1

N-MLV p12_WT (purified, untagged) (natural protein)
amount of p12 pelleted by the CA-nanotubes (67 pmol CA loaded) [2]: 11.2 pmol | stoichiometry N (p12 per CA (1:6)) [2]: 0.167

histone H2B (from UniProt P62807 1-126) (natural protein)
fold difference in histone precipitation against the WT FeLV p12 [3]: < 2 fold | fold difference in histone precipitation against the WT FeLV p12 [4]: < 2 fold | fold more histones pulled down from mitotic than from interphase cell lysates [5]: 4 fold | fold reduction of H2B precipitation after kenpaullone [5]: 3.5 fold | fold reduction of H2B precipitation after roscovitine [5]: 1.5 fold | fold reduction in histone pull down against GST-p12 M63I [6]: 3 fold | fold reduction in histone pull down against GST-p12 M63I [7]: 6 fold | fold reduction in histone pull down against GST-p12 M63I [8]: 1.5 fold

recombinant H3.3 poly-nucleosomes
binding signal [9]: 10
